Test results taken from patent US20220153832A1 (PIONYR IMMUNOTHERAPEUTICS, published 2022).

T1: Human Macrophage Receptor with Collagenous Structure (MARCO), full length, on cells (human, UniProt Q9UEW3 1-520)
T1 construct: the cell type is named under assay; also called huMARCO; HuMARCO
T1 sequence: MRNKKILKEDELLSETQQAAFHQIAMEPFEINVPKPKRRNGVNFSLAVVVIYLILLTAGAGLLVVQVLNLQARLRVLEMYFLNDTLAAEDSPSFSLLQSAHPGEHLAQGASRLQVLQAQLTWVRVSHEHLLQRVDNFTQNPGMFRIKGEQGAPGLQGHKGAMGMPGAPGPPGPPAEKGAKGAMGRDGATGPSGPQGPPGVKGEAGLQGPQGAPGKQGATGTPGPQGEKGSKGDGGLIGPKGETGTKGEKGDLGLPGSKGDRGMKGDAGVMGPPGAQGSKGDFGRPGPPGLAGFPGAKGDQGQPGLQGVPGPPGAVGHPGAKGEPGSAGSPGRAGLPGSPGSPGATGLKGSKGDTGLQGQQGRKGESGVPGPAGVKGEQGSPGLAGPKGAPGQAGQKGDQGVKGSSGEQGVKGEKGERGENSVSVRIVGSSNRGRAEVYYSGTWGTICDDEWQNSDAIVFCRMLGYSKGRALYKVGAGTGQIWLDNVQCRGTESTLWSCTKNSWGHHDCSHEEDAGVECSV

T2: N-terminally polyhistidine tagged human MARCO ECD (147-520), recombinant (human, UniProt Q9UEW3 147-520)
T2 construct: also called PI-RG-3000; recombinant human MARCO; not shown: N-terminal polyhistidine tag
T2 sequence: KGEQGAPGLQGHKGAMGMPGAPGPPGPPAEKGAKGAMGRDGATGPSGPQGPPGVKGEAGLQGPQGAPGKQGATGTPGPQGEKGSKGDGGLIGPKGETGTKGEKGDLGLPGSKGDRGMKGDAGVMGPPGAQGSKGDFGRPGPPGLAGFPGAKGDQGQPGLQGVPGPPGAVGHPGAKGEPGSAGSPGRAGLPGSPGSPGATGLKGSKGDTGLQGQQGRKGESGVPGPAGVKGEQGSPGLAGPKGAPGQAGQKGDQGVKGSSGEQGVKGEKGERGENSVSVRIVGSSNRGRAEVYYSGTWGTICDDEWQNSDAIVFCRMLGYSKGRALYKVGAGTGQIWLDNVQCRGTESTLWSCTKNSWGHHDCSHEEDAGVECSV

T3: recombinant cynomolgus MARCO protein (cynomolgus, UniProt A0A2K5X0Z2 65-519)
T3 construct: Construct not described; also called cyno MARCO; cynoMARCO
T3 sequence: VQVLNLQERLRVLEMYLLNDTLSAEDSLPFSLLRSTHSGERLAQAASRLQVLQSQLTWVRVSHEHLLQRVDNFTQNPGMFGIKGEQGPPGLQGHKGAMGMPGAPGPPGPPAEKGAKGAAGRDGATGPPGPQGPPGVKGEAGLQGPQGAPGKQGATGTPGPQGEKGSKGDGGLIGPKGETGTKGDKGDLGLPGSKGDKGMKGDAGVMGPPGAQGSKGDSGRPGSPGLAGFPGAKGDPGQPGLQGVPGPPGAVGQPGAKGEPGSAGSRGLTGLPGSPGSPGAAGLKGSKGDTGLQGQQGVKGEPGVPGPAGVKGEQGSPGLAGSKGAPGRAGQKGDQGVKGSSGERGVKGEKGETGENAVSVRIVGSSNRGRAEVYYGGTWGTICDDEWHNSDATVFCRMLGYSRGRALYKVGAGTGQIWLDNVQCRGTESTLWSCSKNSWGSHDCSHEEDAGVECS

T4: Cynomolgus MARCO, full length, on cells (cynomolgus, UniProt A0A2K5X0Z2 1-519)
T4 construct: whole, on cells; also called cyno MARCO; CyMARCO
T4 sequence: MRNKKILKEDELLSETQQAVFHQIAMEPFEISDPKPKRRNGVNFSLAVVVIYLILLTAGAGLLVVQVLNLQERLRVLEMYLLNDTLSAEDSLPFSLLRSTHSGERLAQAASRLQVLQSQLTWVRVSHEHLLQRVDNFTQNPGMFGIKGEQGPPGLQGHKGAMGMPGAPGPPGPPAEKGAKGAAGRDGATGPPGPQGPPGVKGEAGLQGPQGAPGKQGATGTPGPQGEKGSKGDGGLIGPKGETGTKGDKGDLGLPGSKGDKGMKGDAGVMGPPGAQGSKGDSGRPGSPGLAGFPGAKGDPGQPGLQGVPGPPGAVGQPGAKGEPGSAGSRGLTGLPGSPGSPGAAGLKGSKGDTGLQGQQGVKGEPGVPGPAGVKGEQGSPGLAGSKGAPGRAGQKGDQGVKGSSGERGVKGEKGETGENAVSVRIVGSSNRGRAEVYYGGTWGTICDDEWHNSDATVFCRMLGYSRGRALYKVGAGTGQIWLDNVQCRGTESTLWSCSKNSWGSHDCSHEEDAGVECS


What was measured:
[1] = biological target: T1, Human Macrophage Receptor with …; assay: flow cytometry, cells overexpressing human MARCO
[2] = biological target: T2, N-terminally polyhistidine tagged human …; assay: SPR, single cycle (sc)
[3] = biological target: T3, recombinant cynomolgus MARCO protein; assay: SPR, single cycle (sc)
[4] = biological target: T4, Cynomolgus MARCO, full length, on cells; assay: flow cytometry, cells overexpressing cyno MARCO
[5] = biological target: T1, Human Macrophage Receptor with …; assay: cell-based competition with AF488 E. coli binding to cells expressing MARCO
Method: Zombie NIR viability dye (BioLegend), prepared by diluting the stock 1000-fold in D-PBS, was added to the cells and incubated for 10 min at RT in the dark. The reaction was quenched by adding 1 m of 4× Staining buffer (2% FBS in DBPS containing Ca2+), followed by centrifugation at 400×g for 5 min at 4° C. Cells were then plated in V-shaped 96 well plates at a density of 100,000 cells. A488-fluorescently labeled bacteria (E. coli from Invitrogen) was added at 10 μg/ml with the anti-human MARCO antibodies of interest for a 30 min incubation at 37 C. Plates were then washed twice followed by resuspension in 100 ul of staining buffer for acquisition on the flow cytometer (Attune NxT, Life Technologies). Flow cytometry data were analyzed using FlowJo software (version 10.6.1) and data were processed and further analyzed in Microsoft Excel and GraphPad Prism software (version 8).

[6] = biological target: T2, N-terminally polyhistidine tagged human …; assay: ELISA readout A450-A620; the panel names no target, the legend says MARCO expressing cells; stable transfection pools
[7] = biological target: T2, N-terminally polyhistidine tagged human …; assay: Biacore; deamidation stress sample (40 C 2 week)
[8] = biological target: T2, N-terminally polyhistidine tagged human …; assay: Biacore (SPR), binding affinity to human MARCO
Summary of the method: (§1)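 On a CM4 chip, anti-mouse Fc mAb was amine-coupled to a 4500 RU target and used to capture the antibodies. Their binding kinetics and affinity for N-terminally His-tagged human MARCO extracellular domain (147-520) were then measured by multi-cycle surface plasmon resonance on a Biacore T200. This was done at 25° C in 10 mM HEPES pH 7.4, 150 mM NaCl, 3 mM EDTA, 0.05% surfactant P20, with 0.625–10 nM injections, 90 s association and 600 s dissociation, and fitting in BIAevaluation 3.1.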

[9] = biological target: T2, N-terminally polyhistidine tagged human …; assay: Biacore; sample stressed 40 C 2 week
Method: Binding of the stressed samples to recombinant human MARCO was assessed by Biacore.

[10] = biological target: T2, N-terminally polyhistidine tagged human …; assay: Biacore (SPR), recombinant human MARCO
Summary of the method: as §1

[11] = biological target: T2, N-terminally polyhistidine tagged human …; assay: Biacore; isomerization/fragmentation stress sample
[12] = biological target: T4, Cynomolgus MARCO, full length, on cells; assay: flow cytometry, cells overexpressing cyno MARCO; cyn (second of hu/cyn)
[13] = biological target: T3, recombinant cynomolgus MARCO protein; assay: Biacore (SPR), recombinant cyno MARCO
[14] = biological target: T1, Human Macrophage Receptor with …; assay: flow cytometry, cells overexpressing human MARCO; hu (first of hu/cyn)
[15] = biological target: T2, N-terminally polyhistidine tagged human …; assay: ELISA readout A450-A620; the panel names no target, the legend says MARCO expressing cells; transiently made reference antibody
[16] = biological target: T2, N-terminally polyhistidine tagged human …; assay: Biacore, recombinant human MARCO; control sample
[17] = biological target: T2, N-terminally polyhistidine tagged human …; assay: ELISA on hMARCO ECD with 2 mM Ca2+, A450-A620
[18] = biological target: T2, N-terminally polyhistidine tagged human …; assay: ELISA on hMARCO ECD with 2 mM EDTA, A450-A620

Row | EC50 [1] | Kd [2] | Kd [3] | EC50 [4] | EC50 [5] | EC50 (read off the curve) [6] | Kd [7] | Kd [8] | Kd [9] | Kd [10] | koff [10] | Kd [11] | EC50 [12] | Kd [13] | EC50 [14] | EC50 (read off the curve) [15] | Kd [16] | EC50 (read off the curve) [17] | EC50 (read off the curve) [18] | Binder
1 | 0.57 nM | 1.13 nM | 0.735 nM | 1.4 nM | 0.12 nM | – | – | – | – | – | – | – | – | – | – | – | – | – | – | PI-3012-AB (antibody, human IgG1, kappa, V domains shown) VH: QVQLQESGPGLVKPSETLSLTCTVSGFSLTSYHVSWVRQPPGKGLEWIGAIWTGGSIAYNPSLKSRVTISRDTSKNQVSLKLSSVTAADTAVYYCARDLSDYYSSYTSFDYWGQGTLVTVSS VL: DIQMTQSPSSLSASVGDRVTITCRASEGISNDLAWYQQKPGKAPKLLIYAASRLQSGVPSRFSGSGSGTDYTLTISSLQPEDFATYYCQQSYKYPLTFGQGTKLEIKR
2 | – | – | – | – | – | ~0.2 nM | 0.66 nM | 1.09 nM | 0.58 nM | 1.09 nM | 0.00043 s⁻¹ | 0.66 nM | 1.01 nM | 1.79 nM | 0.79 nM | ~0.2 nM | 0.54 nM | ~1 nM | – | PI-3025-AB (antibody, human IgG1, kappa, also called PI-3025-AB2) heavy: not shown light: DIQMTQSPSSLSASVGDRVTITCRASEGISNDLAWYQQKPGKAPKLLIYAASRLQDGVPSRFSGSGSGTDYTLTISSLQPEDFATYYCQQSYKYPLTFGQGTKLEIKRTVAAPSVFIFPPSDEQLKSGTASVVCLLNNFYPREAKVQWKVDNALQSGNSQESVTEQDSKDSTYSLSSTLTLSKADYEKHKVYACEVTHQGLSSPVTKSFNRGEC
3 | – | – | – | – | – | ~0.2 nM | 0.39 nM | 0.82 nM | 0.36 nM | 0.82 nM | 0.000334 s⁻¹ | 0.34 nM | 1.03 nM | 1.12 nM | 0.704 nM | ~0.2 nM | 0.24 nM | ~0.8 nM | – | PI-3041-AB (antibody, human IgG1, kappa, Humanized PI-HX-3011, hIgG1) heavy: not shown light: DIQMTQSPSSLSASVGDRVTITCRASAGISNDLAWYQQKPGKAPKLLIYAASRLQDGVPSRFSGSGSGTDFTLTISSMQPEDFATYYCQQSYKYPWTFGQGTKLEIKRTVAAPSVFIFPPSDEQLKSGTASVVCLLNNFYPREAKVQWKVDNALQSGNSQESVTEQDSKDSTYSLSSTLTLSKADYEKHKVYACEVTHQGLSSPVTKSFNRGEC
4 | – | – | – | – | – | – | – | – | – | – | – | – | – | – | – | – | – | ~0.9 nM | ~0.2 nM | PI-3032-AB (antibody, human IgG1, kappa, V domains shown, calcium independent) VH: EVQLVESGGGLVQPGGSLRLSCAASKFTFSNYGMNWIRQAPGKGLEWIALIYYNSNNKYYADSVKGRFTISRDNSKNTLYLQMNSLRAEDTAVYYCAKSLTGGSDYFDSWGQGTLVTVSS VL: DIQMTQSPSSLSASVGDRVTITCRASKSIGTFLAWYQQKPGKAPKLLIYSGSTLESGVPSRFSGSGSGTDFTLTISSLQPEDFATYYCQQHDEYPFTFGQGTKLEIKR
